Consider 19 molecules from patent publication US20250388664A1 (BIOARCTIC, published 2025).

Positions count from the first letter of the chain named. Names may count otherwise.

One assay concerns the target T1, AβpE3-40 monomer (UniProt P05067 674-711, pyroglutamate at position 3 (N-terminal residue)).
T1 construct: range 3-40 (Aβ numbering); Synthetic peptide (Bachem/Anaspec), verified monomeric by SEC; also called monomeric AβpE3-40
Description: SPR, antibody immobilised, monomer injected, 1:1 fit. In general terms: Surface plasmon resonance follows binding to a sensor surface in real time, without labels.

For assay [1], the target named is T2, truncated hTfR1 of SEQ ID NO:122 (human, UniProt P02786 122-760).
T2 construct: also called human TfR1; Human TfR1
Briefly: SPR, FLAG-captured TfR1, bispecific injected, 1:1 fit. As to the method: (§1) Binding of the purified bispecific binding molecules produced in Example 47 to human and cynomolgus TfR1 was evaluated using SPR on a Biacore 8K instrument (Cytiva). […] The interaction was measured using the single cycle kinetics method with a contact time of 120 s at a flow rate of 30 μl/min followed by a dissociation time of 600 s. Regeneration of the surface between cycles was done by injecting 10 mM glycine-HCl, pH 1.7. The binding data was fitted to a 1:1 interaction model. The tested molecules were diluted in HBS-EP+ (Cytiva, #BR100669). Experiments were performed at 25° C.

For assay [2], the target named is T3, truncated cTfR1 of SEQ ID NO:123 (cynomolgus monkey, UniProt Q5RDH6 122-760 (Pongo abelii entry)).
T3 construct: also called cynomolgus TfR1
T3 chain: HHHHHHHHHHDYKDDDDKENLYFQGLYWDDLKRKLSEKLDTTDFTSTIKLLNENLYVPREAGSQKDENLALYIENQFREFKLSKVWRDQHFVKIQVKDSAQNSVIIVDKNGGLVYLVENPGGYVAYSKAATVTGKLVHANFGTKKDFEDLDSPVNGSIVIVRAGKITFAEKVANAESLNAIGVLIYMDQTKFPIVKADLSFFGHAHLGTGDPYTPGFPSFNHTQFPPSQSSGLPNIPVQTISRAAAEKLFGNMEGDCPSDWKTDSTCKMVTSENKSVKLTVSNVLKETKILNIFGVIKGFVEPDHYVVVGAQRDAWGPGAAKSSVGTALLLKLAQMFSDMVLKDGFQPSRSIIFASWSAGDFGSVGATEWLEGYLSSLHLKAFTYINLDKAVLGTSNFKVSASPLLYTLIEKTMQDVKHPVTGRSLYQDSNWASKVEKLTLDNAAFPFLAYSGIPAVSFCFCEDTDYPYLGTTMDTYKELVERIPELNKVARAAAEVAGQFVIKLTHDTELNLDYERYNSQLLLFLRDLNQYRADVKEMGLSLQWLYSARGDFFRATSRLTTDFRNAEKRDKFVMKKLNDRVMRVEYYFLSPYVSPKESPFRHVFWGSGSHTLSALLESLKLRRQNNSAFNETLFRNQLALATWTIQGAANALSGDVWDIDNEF
The assay is described as above. The method, then:
as §1

Assay [3] addresses T2, truncated hTfR1 of SEQ ID NO:122. Briefly: SPR, TfR1 amine-coupled, Fab injected, 1:1 fit. The method, then: (§2) Binding of the purified Fabs to human and cynomolgus TfR1 was evaluated using either SPR (FIG. 44) or indirect ELISA (FIG. 45). For SPR, a Biacore 8K instrument (Cytiva) was used. […] The Fabs were injected over the chip using a 2-fold dilution series in four steps starting at 100 nM. The interaction was measured using the single cycle kinetics method with a contact time of 120 s at a flow rate of 30 μl/min followed by a dissociation time of 1000 s. Regeneration of the surface between cycles was done by injecting 3M MgCl₂. The binding data was fitted to a 1:1 interaction model. The Fabs were diluted in HBS-EP+ (Cytiva, #BR100669). Experiments were performed at 25° C.

For assay [4], the target named is T3, truncated cTfR1 of SEQ ID NO:123. Description: SPR, TfR1 amine-coupled, Fab injected, 1:1 fit. As to the method:
as §2

Assay [5] concerns the target T4, ectodomain of human TfR1 (His10-hTfR1; SEQ ID NO:110) (human, UniProt P02786 89-760).
T4 construct: also called ectodomain of hTfR1
Description: indirect ELISA: plate coated with 1 µg/ml hTfR1 ectodomain, Fab in 1:3 serial dilution, anti-human IgG F(ab')2-HRP. As to the method: For the indirect ELISA, half area 96-well plates (Corning, #3690) were coated with 1 μg/ml recombinant ectodomain of hTfR1 (SEQ ID NO:110) in PBS overnight at 4° C. The coated plates were blocked using Pierce protein-free blocking solution (Thermo Fisher Scientific, #37572) for 1 h at room temperature with shaking and washed four times in PBS containing 0.1% TWEEN-20. Serial dilutions (1:3) of various expressed constructs in incubation buffer (1% BSA, 0.1% TWEEN-20 in PBS) were incubated for 1 h at room temperature. […] Following four wash steps, K-Blue® Aqueous TMB substrate (Neogen, #331177) was added to the wells for 15 min at room temperature before the reaction was stopped with 1:1 dilution of 0.5 M H₂SO₄. The optical density at 450 nm was recorded (Spark, Tecan) and background signal was subtracted before analysis.

T1 sequence (P05067 674-711): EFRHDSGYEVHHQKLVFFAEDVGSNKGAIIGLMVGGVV

B1: BA007 (bispecific antibody, human IgG1, kappa)
light: EIVLTQSPLSLSVTLGQSASISCRSSQSLLDSNGKTYLHWFILRPGQSPRRLIYLVSILDSGVPDRFSGSGSGTDFTLKISRVEAEDVGVYYCVQGTHFPFTFGSGTKLEIKRTVAAPSVFIFPPSDEQLKSGTASVVCLLNNFYPREAKVQWKVDNALQSGNSQESVTEQDSKDSTYSLSSTLTLSKADYEKHKVYACEVTHQGLSSPVTKSFNRGEC
heavy 1: not shown
heavy 2: EVQLVQSGAEVVKPGASVRLSCKASGYSFTGFTMNWVRQALGQGLEWMGLINPYNGVTTYNQKFKGRLTMTRDMSTRTVYMDLSSLTYEDTAVYYCTREGNWEGVYWGQGTLVTVSSASTKGPSVFPLAPSSKSTSGGTAALGCLVKDYFPEPVTVSWNSGALTSGVHTFPAVLQSSGLYSLSSVVTVPSSSLGTQTYICNVNHKPSNTKVDKKVEPKSCDKTHTCPPCPAPELLGGPSVFLFPPKPKDTLMISRTPEVTCVVVDVSHEDPEVKFNWYVDGVEVHNAKTKPREEQYNSTYRVVSVLTVLHQDWLNGKEYKCAVSNKALPAPIEKTISKAKGQPREPQVYTLPPCRDELTKNQVSLWCLVKGFYPSDIAVEWESNGQPENNYKTTPPVLDSDGSFFLYSKLTVDKSRWQQGNVFSCSVMHEALHNHYTQKSLSLSPGGGGGSGGGGSGGGGSGGGGSDIQMTQSPSSVSASVGDRVTITCKSSQSLLYSTNQKNYLAWYQQKPGKAPKLLIYWASTRESGVPSRFSGSGSGTDFTLTISSLQPEDFATYYCQQYFIYPRTFGCGTKVEIKGGGGSGGGGSGGGGSGGGGSEVQLVQSGAEVKKPGSSVKVSCKASGYIFTDYNMDWVRQAPGQCLEWIGDINPDADTTSYNEKFKGRATLTVDKSTSTAYMELSSLRSEDSAVYYCARGGYSGSSYYHPMDYWGQGTLVTVKS
As a reminder, the Kd is the concentration at which binding is half-saturated. As a reminder, the koff is a measure of how fast the partners let go of each other. A high value points to fast dissociation. A word on the kon: it is the second-order rate constant of association. A higher kon goes with faster complex formation. Consider B1, for which, in the assay with AβpE3-40 monomer, the Kd was 2.1 nM, the off-rate constant (koff) stood at 0.00012 s⁻¹ and the association rate constant (kon) amounted to 54000 M⁻¹ s⁻¹. In assay [1], this molecule registered an equilibrium dissociation constant (Kd) of 186 nM, a koff of 0.004 s⁻¹ and a kon of 22000 M⁻¹ s⁻¹. Also, in assay [2], the Kd was found to be 565 nM, the off-rate constant (koff) came out at 0.011 s⁻¹ and the on-rate constant (kon) stood at 19000 M⁻¹ s⁻¹.

B2: h26D3 variant HC2 Fab (Fab, V domains shown)
VH: EVQLVQSGAEVKKPGSSVKVSCKASGYIFTDANMDWVRQAPGQGLEWIGDINPDYDTTSYNEKFKGRATLTVDKSTSTAYMELSSLRSEDTAVYYCARGGYSGSSYYHPMDYWGQGTLVTVSS
VL: DIQMTQSPSSVSASVGDRVTITCKSSQSLLYSTNQKNYLAWYQQKPGKAPKLLIYWASTRESGVPSRFSGSGSGTDFTLTISSLQPEDFATYYCQQYFIYPRTFGQGTKVEIK
notes: Single-mutant His-tagged Fab; also called Y32A
Consider B2, for which the figures for the Kd in assay [3] and in assay [4] were 8.7 nM and 12 nM, respectively.

B3: h26D3 variant HC5 Fab (Fab, V domains shown)
VH: B2 VH with A32Y, D54A
VL: B2 VL
notes: Single-mutant His-tagged Fab; also called D54A
For B3, the Kd in assay [3] came out at 20 nM; in assay [4] it was 39 nM.

B4: h26D3-HC3/LC1 (Fab, V domains shown)
VH: B2 VH with A32Y, D35A
VL: B2 VL with Y31A
notes: His-tagged Fab; also called double alanine mutant of h26D3 (VH D35A, VL Y31A)
In the case of B4, in assay [5], the binding result is “binds”.

B5: h26D3 variant HC6 Fab (Fab, V domains shown)
VH: B2 VH with A32Y, Y55A
VL: B2 VL
notes: Single-mutant His-tagged Fab; also called Y55A
On to B5, for which the Kd in assay [3] is 156 nM; in assay [4] it was 164 nM.

B6: h26D3-HC6/LC5 (Fab, V domains shown)
VH: B2 VH with A32Y, Y55A
VL: B2 VL with Y97A
notes: His-tagged Fab; also called double alanine mutant of h26D3 (VH Y55A, VL Y97A)
B6: in assay [5], the binding result was “binds”.

B7: h26D3-HC10/LC1 (Fab, V domains shown)
VH: B2 VH with A32Y, Y106A
VL: B2 VL with Y31A
notes: His-tagged Fab; also called double alanine mutant of h26D3 (VH Y106A, VL Y31A)
Turning to B7, in assay [5], the binding result is on record as “binds”.

B8: h26D3-HC3/LC5 (Fab, V domains shown)
VH: B2 VH with A32Y, D35A
VL: B2 VL with Y97A
notes: His-tagged Fab; also called double alanine mutant of h26D3 (VH D35A, VL Y97A)
Turning to B8, the binding result in assay [5] is reported as “binds”.

B9: h26D3-HC8/LC5 (Fab, V domains shown)
VH: B2 VH with A32Y, Y60A
VL: B2 VL with Y97A
notes: His-tagged Fab; also called double alanine mutant of h26D3 (VH Y60A, VL Y97A)
With B9, in assay [5], the binding result is “binds”.

B10: h26D3-HC10/LC5 (Fab, V domains shown)
VH: B2 VH with A32Y, Y106A
VL: B2 VL with Y97A
notes: His-tagged Fab; also called double alanine mutant of h26D3 (VH Y106A, VL Y97A)
As to B10, the binding result in assay [5] is “binds”.

B11: h26D3 variant HC11 Fab (Fab, V domains shown)
VH: B2 VH with A32Y, Y107A
VL: B2 VL
notes: Single-mutant His-tagged Fab; also called Y107A
For B11, the Kd in assay [3] worked out at 388 nM; in assay [4] it was 2.7 nM.

B12: h26D3 variant LC6 Fab (Fab, V domains shown)
VH: B2 VH with A32Y
VL: B2 VL with Y100A
notes: Single-mutant His-tagged Fab; also called Y100A
Turning to B12, the Kd is 8.5 nM in assay [3] and 9.4 nM in assay [4].

B13: h26D3 variant HC10 Fab (Fab, V domains shown)
VH: B2 VH with A32Y, Y106A
VL: B2 VL
notes: Single-mutant His-tagged Fab; also called Y106A
For B13, the Kd in assay [3] worked out at 9.2 nM; in assay [4], 4.6 nM.

B14: h26D3-HC8/LC1 (Fab, V domains shown)
VH: B2 VH with A32Y, Y60A
VL: B2 VL with Y31A
notes: His-tagged Fab; also called double alanine mutant of h26D3 (VH Y60A, VL Y31A)
For the molecule B14, the binding result in assay [5] is on record as “binds”.

B15: h26D3 variant HC8 Fab (Fab, V domains shown)
VH: B2 VH with A32Y, Y60A
VL: B2 VL
notes: Single-mutant His-tagged Fab; also called Y60A
As to B15, the figures for the dissociation constant (Kd) in assay [3] and in assay [4] were 10 nM and 19 nM, respectively.

B16: h26D3 variant LC1 Fab (Fab, V domains shown)
VH: B2 VH with A32Y
VL: B2 VL with Y31A
notes: Single-mutant His-tagged Fab; also called Y31A
For the molecule B16, the dissociation constant (Kd) came out at 14 nM in assay [3] and 70 nM in assay [4].

B17: h26D3-HC6/LC1 (Fab, V domains shown)
VH: B2 VH with A32Y, Y55A
VL: B2 VL with Y31A
notes: His-tagged Fab; also called double alanine mutant of h26D3 (VH Y55A, VL Y31A)
B17: the binding result in assay [5] is “binds”.

B18: h26D3 variant HC4 Fab (Fab, V domains shown)
VH: B2 VH with A32Y, D50A
VL: B2 VL
notes: Single-mutant His-tagged Fab; also called D50A
Turning to B18, the results for the Kd in assay [3] and in assay [4] were 5.1 nM and 8 nM, respectively.

B19: h26D3 variant HC3 Fab (Fab, V domains shown)
VH: B2 VH with A32Y, D35A
VL: B2 VL
notes: Single-mutant His-tagged Fab; also called D35A
For B19, the values for the Kd in assay [3] and in assay [4] were 16 nM and 168 nM, respectively.
